In patent US20120208770A1:

Target: vimentin of SCCVII cells (cell-surface protein of murine squamous cell carcinoma cells and SCCVII tumors in C3H mice) (mouse (murine SCCVII cells)) (UniProt P20152)
Test: cell-based or functional assay

Chain of UniProt P20152 (P20152 2-466): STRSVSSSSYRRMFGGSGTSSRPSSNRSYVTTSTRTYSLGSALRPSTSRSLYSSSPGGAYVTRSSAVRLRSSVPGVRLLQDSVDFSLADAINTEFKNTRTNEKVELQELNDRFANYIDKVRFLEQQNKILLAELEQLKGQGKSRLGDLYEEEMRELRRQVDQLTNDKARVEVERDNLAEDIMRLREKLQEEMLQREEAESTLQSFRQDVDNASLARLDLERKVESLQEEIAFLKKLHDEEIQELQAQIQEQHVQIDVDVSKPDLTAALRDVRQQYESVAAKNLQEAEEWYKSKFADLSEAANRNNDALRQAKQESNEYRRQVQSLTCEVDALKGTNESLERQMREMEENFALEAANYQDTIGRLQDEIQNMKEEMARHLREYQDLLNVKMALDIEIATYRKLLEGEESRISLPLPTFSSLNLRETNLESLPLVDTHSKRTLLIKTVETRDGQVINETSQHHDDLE

Which results are given for H-VNTANSTGG-biotin [CHP-biotin (NH2-…-biotin)]?
accumulation of peptide-biotin in SCCVII tumor (positive per field, DAB staining), co-administered with anti-vimentin (positive per field): 1.2; accumulation of peptide-biotin in SCCVII tumor (positive per field, DAB staining), without anti-vimentin (positive per field): 19.6
